Target: human cyclic nucleotide-gated channel β1-subunit, wild type (human) (UniProt Q14028)
Experiment: HEK 293 plasma membrane recruitment assay

Chain of human cyclic nucleotide-gated channel β1-subunit, wild type (human) (Q14028 whole entry): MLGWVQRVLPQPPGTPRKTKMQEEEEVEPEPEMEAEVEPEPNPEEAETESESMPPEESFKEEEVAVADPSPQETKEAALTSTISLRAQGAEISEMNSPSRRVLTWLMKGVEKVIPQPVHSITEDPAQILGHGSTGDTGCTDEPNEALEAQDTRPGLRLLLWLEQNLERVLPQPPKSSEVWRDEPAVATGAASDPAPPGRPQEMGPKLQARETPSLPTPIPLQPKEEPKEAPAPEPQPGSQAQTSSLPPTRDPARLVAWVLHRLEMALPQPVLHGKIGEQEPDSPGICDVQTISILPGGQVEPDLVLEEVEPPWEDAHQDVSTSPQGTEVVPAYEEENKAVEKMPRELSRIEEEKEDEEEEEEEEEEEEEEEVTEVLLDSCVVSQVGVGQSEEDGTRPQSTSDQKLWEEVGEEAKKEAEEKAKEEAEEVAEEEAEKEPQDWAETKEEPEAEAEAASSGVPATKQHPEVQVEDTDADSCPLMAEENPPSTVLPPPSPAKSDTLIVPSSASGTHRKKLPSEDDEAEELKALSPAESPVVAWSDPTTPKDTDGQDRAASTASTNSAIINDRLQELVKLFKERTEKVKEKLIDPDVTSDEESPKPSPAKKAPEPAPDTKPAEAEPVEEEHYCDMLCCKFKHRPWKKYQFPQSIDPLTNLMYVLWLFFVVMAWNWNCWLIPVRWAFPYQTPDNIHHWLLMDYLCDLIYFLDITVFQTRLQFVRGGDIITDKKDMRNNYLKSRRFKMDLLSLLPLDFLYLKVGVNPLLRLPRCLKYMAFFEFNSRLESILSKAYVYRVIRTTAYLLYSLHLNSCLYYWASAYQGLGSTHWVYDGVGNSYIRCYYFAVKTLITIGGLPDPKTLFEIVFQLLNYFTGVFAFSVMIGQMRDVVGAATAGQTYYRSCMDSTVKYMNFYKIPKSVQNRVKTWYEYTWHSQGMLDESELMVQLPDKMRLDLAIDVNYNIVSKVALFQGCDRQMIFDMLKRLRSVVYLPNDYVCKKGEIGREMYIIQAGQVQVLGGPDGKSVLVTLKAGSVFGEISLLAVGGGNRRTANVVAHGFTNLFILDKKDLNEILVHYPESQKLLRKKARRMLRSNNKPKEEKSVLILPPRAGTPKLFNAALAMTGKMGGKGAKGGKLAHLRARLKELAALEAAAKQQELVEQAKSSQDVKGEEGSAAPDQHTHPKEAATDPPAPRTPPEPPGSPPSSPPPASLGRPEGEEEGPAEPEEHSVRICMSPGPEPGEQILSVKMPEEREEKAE

cells with complete recruitment: 65 % of cells
Substance: ankyrin-G fused to green fluorescent protein, O70511 1-2622
